Assay [1] concerns the target T1, human IL-8 receptor (Homo sapiens, UniProt P25025).
T1 construct: expressed in transfected cells; host or cells: Xenopus oocytes injected with p2 cRNA
T1 sequence (P25025 6-360): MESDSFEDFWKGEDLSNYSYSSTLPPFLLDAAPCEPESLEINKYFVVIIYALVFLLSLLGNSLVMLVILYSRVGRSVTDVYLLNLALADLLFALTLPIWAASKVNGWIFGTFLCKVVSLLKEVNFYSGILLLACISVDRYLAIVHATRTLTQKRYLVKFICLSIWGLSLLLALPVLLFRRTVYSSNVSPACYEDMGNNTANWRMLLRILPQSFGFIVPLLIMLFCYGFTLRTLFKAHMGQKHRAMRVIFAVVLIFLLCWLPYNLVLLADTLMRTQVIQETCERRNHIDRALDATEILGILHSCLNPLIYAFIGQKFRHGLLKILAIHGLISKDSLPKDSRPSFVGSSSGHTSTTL
Briefly: calcium efflux assay in Xenopus oocytes injected with p2 cRNA. The assay is classed as cell-based. Conditions: for calcium mobilization / activation of the IL-8 receptor (result in words): FIG. 2C; for rank order of potency for activating calcium flux: IL-8 receptor expressed by Xenopus oocytes, FIG. 2(C). How it is done:
(§1) The materials and methods used for the calcium efflux assay were as described in P. M. Murphy, E. K. Gallin, H. L. Tiffany, J. Immunol. […] Oocytes were microinjected with RNA samples in a total volume of 50 nl per oocyte 3 days after harvesting and were then incubated at 20° to 23° C. for 2 to 4 days. Oocytes were then incubated with ^45 Ca^2+ [50 μCi/ml (ICN Biomedicals, Costa Mesa, Calif.)] for 3 hours. After ten washes with medium, individual oocytes were stimulated with ligand in wells of a 96-well tissue culture plate containing 100 μl of medium. Three 100 μl samples of the incubation medium were collected and analyzed by liquid scintillation counting: a) the final 100 μl wash (20 min) before application of ligand; b) fluid containing the stimulus, removed after a 20 min incubation with the oocyte; and c) the oocyte solubilized in SDS (1%) in medium 20 min after stimulation. Data are presented as the mean±standard error of the mean (SEM) of the percent of loaded ^45 Ca^2+ that was released by individual oocytes in response to the stimulus, or [(b-a).div.(b+c)]×100. FMLP and recombinant human C5a was from Sigma, St. Louis, Mo. Recombinant human IL-8 was from Genzyme, Boston, Mass. Recombinant human NAP-2 was from Bachem, Philadelphia, Pa.

The test system of assay [2] is oocytes injected with 50 ng of HL60 neutrophil RNA. Briefly: calcium efflux assay in oocytes injected with HL60 neutrophil RNA. It counts as cell-based, Xenopus. Conditions: oocytes injected with 50 ng HL60 neutrophil RNA. How it is done: as §1
A further assay deals with receptor encoded by p2. Briefly: binding of 125I-labeled IL-8 and gro to COS cells transiently transfected with pCDNAI-p2. Further details: species or system human. The following applies: receptor encoded by p2 expressed in COS cells. How it is done:
To further support the data obtained from the oocyte studies, the p2 cDNA was also cloned into the vector pCDNAI. When COS cells are transiently transfected with the pCDNAI-p2 construct, specific binding sites were detected with ^125 I-labeled IL-8 and gro protein. In contrast to the ligand binding affinity in the oocyte environment, the affinity for the ligand when the receptor encoded by p2 was expressed in the COS cell was higher. Specifically, the kd for IL-8 was 2 nM and the kd for gro was 1.3 nM.

For assay [3], the target named is human interleukin-8 receptor encoded by cDNA clone p2 (human).
For a further assay, the target named is recombinant human C5a (human, UniProt P01031). Briefly: displacement of [125I]-IL-8 from Xenopus oocytes injected with p2 cRNA. For orientation: Displacement assays read how much labelled ligand stays bound in the presence of the test substance.
For assay [4], the target named is gro (melanoma growth-stimulatory activity) (Homo sapiens (Human), UniProt P09341, 125I label in the COS cell binding experiment). Briefly: binding of 125I-labeled gro to COS cells transiently transfected with pCDNAI-p2.
A further assay deals with recombinant human IL-8 (human, UniProt P10145, 125I label in the binding experiments). Briefly: binding of 125I-labeled IL-8 to COS cells transiently transfected with pCDNAI-p2.
Assay [5] has as its target T1, human IL-8 receptor. Briefly: binding of [125I]-IL-8 to oocytes injected with p2 cRNA. The following applies: 1 μM competitor. The procedure: Total ( ) and non-specific binding (.largecircle.) was determined by incubating oocytes injected with p2 cRNA with the indicated concentration of radioligand in the absence or presence of unlabeled IL-8 (1 μM), respectively. The data shown are the mean±SEM of triplicate determinations per point and are representative of two separate experiments. Nonspecific binding was subtracted from total binding to determine specific binding (.quadrature.). […] Specific binding of [^125 I]-IL-8 by oocytes injected with water was undetectable.
IL-8 was iodinated to a specific activity of 260 Ci/mmole as described in H. L. Malech, J. P. Gardner, D. F. Heiman, S. A. Rosenzweig, J. Biol. Chem. 260, 2509 (1985). The radioligand was qualified by binding to human neutrophils. Single oocytes were incubated with [^125 I]-IL-8 for 30 min on ice in 10 μl binding buffer (Hanks balanced salt solution with 25 mM HEPES, 1% bovine serum albumin, pH 7.4). Unbound ligand was removed by pelleting the oocyte through 300 μl F50 silicone fluid (General Electric, Waterford, N.Y.). The tube was quick-frozen and gamma emissions from the amputated tips were counted.

[6] abbreviates: Xenopus oocytes injected with p2 cRNA.

Usually EC50 stands for the concentration needed to bring the measured effect to its halfway point. One may read the Kd as the equilibrium constant for the complex coming apart.

As to `CSCC[C@H](NC=O)C(=O)N[C@@H](CC(C)C)C(=O)N[C@@H](Cc1ccccc1)C(=O)O` [FMLP, N-formyl methionyl-leucylphenylalanine, reference compound], the “calcium mobilization / activation of the IL-8 receptor (result in words)” value on human IL-8 receptor [1] (setting [6]) is “did not respond”. The “calcium efflux response (percent of loaded 45Ca2+ released)” value in assay [2] (1 μM ligand) was 51±3%.

For “IL-8: inflammatory cytokine, potent chemoattractant for neutrophils; recombinant human IL-8 from Genzyme”, the “rank order of potency for activating calcium flux” value with human IL-8 receptor [1] is “IL-8>gro>NAP-2”. In the assay with human IL-8 receptor [1] (Xenopus oocytes injected with p2 cRNA, FIG. 2A, read-out: EC50 of intracellular calcium mobilization), the EC50 worked out at 20 nM. Moreover, in the assay with human IL-8 receptor [1] (oocyte EC50 higher than that reported for human neutrophils with recombinant human IL-8), the “EC50 in oocytes relative to value reported for human neutrophils” value is listed as “approximately 20 fold”. For the same molecule, the Kd with receptor encoded by p2 worked out at 2 nM.

Consider “gro: member of the macrophage inflammatory protein-2 (MIP-2) family of cytokines, structurally related to IL-8”, for which the “rank order of potency for activating calcium flux” value with human IL-8 receptor [1] was “IL-8>gro>NAP-2”. The molecule also showed a Kd in the assay on receptor encoded by p2 of 1.3 nM.

As to “recombinant human IL-8 (from UniProt P10145) (ligand)”, the calcium efflux (mobilization of intracellular calcium), EC50 in assay [3] stood at 20 nM.

B1: human interleukin-8 receptor encoded by cDNA clone p2 (receptor)
chain: MESDSFEDFWKGEDLSNYSYSSTLPPFLLDAAPCEPESLEINKYFVVIIYALVFLLSLLGNSLVMLVILYSRVGRSVTDVYLLNLALADLLFALTLPIWAASKVNGWIFGTFLCKVVSLLKEVNFYSGILLLACISVDRYLAIVHATRTLTQKRYLVKFICLSIWGLSLLLALPVLLFRRTVYSSNVSPACYEDMGNNTANWRMLLRILPQSFGFIVPLLIMLFCYGFTLRTLFKAHMGQKHRAMRVIFAVVLIFLLCWLPYNLVLLADTLMRTQVIQETCERRNHIDRALDATEILGILHSCLNPLIYAFIGQKFRHGLLKILAIHGLISKDSLPKDSRPSFVGSSSGHTSTTL
With B1, the binding result with recombinant human C5a is given as “no binding (tested: 1 µM)”. Further, the Kd in assay [4] stood at 1.3 nM; with recombinant human IL-8, 2 nM.

B2: NAP-2: member of the MIP-2 family of cytokines; recombinant human NAP-2 from Bachem (protein)
chain: AELRCMCIKTTSGIHPKNIQSLEVIGKGTHCNQVEVIATLKDGRKICLDPDAPRIKKIVQKKLAGDESAD
Take B2: in the assay with human IL-8 receptor [1], the “rank order of potency for activating calcium flux” value is given as “IL-8>gro>NAP-2”.

B3: C5a: structurally unrelated chemoattractant, 74 amino acids; recombinant human C5a from Sigma (protein)
chain: TLQKKIEEIAAKYKHSVVKKCCYDGACVNNDETCEQRAARISLGPRCIKAFTECCVVASQLRANISHKDMQLGR
Turning to B3, the “calcium mobilization / activation of the IL-8 receptor (result in words)” value in the assay with human IL-8 receptor [1] (setting [6]) was “did not activate”. The “displacement of [125I]-IL-8” value with human IL-8 receptor [5] was “did not displace”. Moreover, the “calcium efflux response (percent of loaded 45Ca2+ released)” value in assay [2] (500 nM ligand) is 16±5%.

The values above are taken from patent US5374506A, “Amino acid sequence for a functional human interleukin-8 receptor” (The United States of America as represented by the …, priority 1991, dated 1994).
